From US20110118447A1

Key:
[1] = target: binding partner of C5A (XPA23); assay: Biacore
[2] = target: binding partner of C5A (XPA23); assay: Biacore, K-off

Binder	fold affinity vs original [1] [fold]	fold difference in affinity vs original [2] [fold]	fold difference in affinity vs original [1] [fold]
C5A (XPA23) VH G55R (antibody, V domains shown) VH: EVQLLESGGGLVQPGGSLRLSCAASGFTFSKYFMFWVRQAPGKGLEWVSVISPSRGMTRYADSVKGRFTISRDNSKNTLYLQMNSLRAEDTAVYYCARVGYGGNSDYWGQGTLVTVSS VL: DIQMTQSPSSVSASVGDRLTIICRASQDINRWLAWYQQTPGNAPKLLIHSATSLQSGVPSRFSGSGSGTDFTLTINSLQPEDFATYYCQQADSFPLTFGGGTKVEIK	0.95	0.95	
C5A (XPA23) VH M57T (antibody, V domains shown) VH: EVQLLESGGGLVQPGGSLRLSCAASGFTFSKYFMFWVRQAPGKGLEWVSVISPSGGTTRYADSVKGRFTISRDNSKNTLYLQMNSLRAEDTAVYYCARVGYGGNSDYWGQGTLVTVSS VL: DIQMTQSPSSVSASVGDRLTIICRASQDINRWLAWYQQTPGNAPKLLIHSATSLQSGVPSRFSGSGSGTDFTLTINSLQPEDFATYYCQQADSFPLTFGGGTKVEIK		0.06	0.06
C5A (XPA23) VH M57R (antibody, V domains shown) VH: EVQLLESGGGLVQPGGSLRLSCAASGFTFSKYFMFWVRQAPGKGLEWVSVISPSGGRTRYADSVKGRFTISRDNSKNTLYLQMNSLRAEDTAVYYCARVGYGGNSDYWGQGTLVTVSS VL: DIQMTQSPSSVSASVGDRLTIICRASQDINRWLAWYQQTPGNAPKLLIHSATSLQSGVPSRFSGSGSGTDFTLTINSLQPEDFATYYCQQADSFPLTFGGGTKVEIK	0.06	0.06	
C5A (XPA23) VH G55S (antibody, V domains shown) VH: EVQLLESGGGLVQPGGSLRLSCAASGFTFSKYFMFWVRQAPGKGLEWVSVISPSSGMTRYADSVKGRFTISRDNSKNTLYLQMNSLRAEDTAVYYCARVGYGGNSDYWGQGTLVTVSS VL: DIQMTQSPSSVSASVGDRLTIICRASQDINRWLAWYQQTPGNAPKLLIHSATSLQSGVPSRFSGSGSGTDFTLTINSLQPEDFATYYCQQADSFPLTFGGGTKVEIK	1.02	1.02	
C5A (XPA23) VH G56D (antibody, V domains shown) VH: EVQLLESGGGLVQPGGSLRLSCAASGFTFSKYFMFWVRQAPGKGLEWVSVISPSGDMTRYADSVKGRFTISRDNSKNTLYLQMNSLRAEDTAVYYCARVGYGGNSDYWGQGTLVTVSS VL: DIQMTQSPSSVSASVGDRLTIICRASQDINRWLAWYQQTPGNAPKLLIHSATSLQSGVPSRFSGSGSGTDFTLTINSLQPEDFATYYCQQADSFPLTFGGGTKVEIK	0.05	0.05	
C5A (XPA23) VH G56E (antibody, V domains shown) VH: EVQLLESGGGLVQPGGSLRLSCAASGFTFSKYFMFWVRQAPGKGLEWVSVISPSGEMTRYADSVKGRFTISRDNSKNTLYLQMNSLRAEDTAVYYCARVGYGGNSDYWGQGTLVTVSS VL: DIQMTQSPSSVSASVGDRLTIICRASQDINRWLAWYQQTPGNAPKLLIHSATSLQSGVPSRFSGSGSGTDFTLTINSLQPEDFATYYCQQADSFPLTFGGGTKVEIK	1.21	1.21	
C5A (XPA23) VH G56K (antibody, V domains shown) VH: EVQLLESGGGLVQPGGSLRLSCAASGFTFSKYFMFWVRQAPGKGLEWVSVISPSGKMTRYADSVKGRFTISRDNSKNTLYLQMNSLRAEDTAVYYCARVGYGGNSDYWGQGTLVTVSS VL: DIQMTQSPSSVSASVGDRLTIICRASQDINRWLAWYQQTPGNAPKLLIHSATSLQSGVPSRFSGSGSGTDFTLTINSLQPEDFATYYCQQADSFPLTFGGGTKVEIK	2.05	2.05	
C5A (XPA23) VH M57K (antibody, V domains shown) VH: EVQLLESGGGLVQPGGSLRLSCAASGFTFSKYFMFWVRQAPGKGLEWVSVISPSGGKTRYADSVKGRFTISRDNSKNTLYLQMNSLRAEDTAVYYCARVGYGGNSDYWGQGTLVTVSS VL: DIQMTQSPSSVSASVGDRLTIICRASQDINRWLAWYQQTPGNAPKLLIHSATSLQSGVPSRFSGSGSGTDFTLTINSLQPEDFATYYCQQADSFPLTFGGGTKVEIK	0.04	0.04	
C5A (XPA23) VH M57S (antibody, V domains shown) VH: EVQLLESGGGLVQPGGSLRLSCAASGFTFSKYFMFWVRQAPGKGLEWVSVISPSGGSTRYADSVKGRFTISRDNSKNTLYLQMNSLRAEDTAVYYCARVGYGGNSDYWGQGTLVTVSS VL: DIQMTQSPSSVSASVGDRLTIICRASQDINRWLAWYQQTPGNAPKLLIHSATSLQSGVPSRFSGSGSGTDFTLTINSLQPEDFATYYCQQADSFPLTFGGGTKVEIK	0.04	0.04	
C5A (XPA23) VH G55N (antibody, V domains shown) VH: EVQLLESGGGLVQPGGSLRLSCAASGFTFSKYFMFWVRQAPGKGLEWVSVISPSNGMTRYADSVKGRFTISRDNSKNTLYLQMNSLRAEDTAVYYCARVGYGGNSDYWGQGTLVTVSS VL: DIQMTQSPSSVSASVGDRLTIICRASQDINRWLAWYQQTPGNAPKLLIHSATSLQSGVPSRFSGSGSGTDFTLTINSLQPEDFATYYCQQADSFPLTFGGGTKVEIK	0.1	0.1	
C5A (XPA23) VH G55Q (antibody, V domains shown) VH: EVQLLESGGGLVQPGGSLRLSCAASGFTFSKYFMFWVRQAPGKGLEWVSVISPSQGMTRYADSVKGRFTISRDNSKNTLYLQMNSLRAEDTAVYYCARVGYGGNSDYWGQGTLVTVSS VL: DIQMTQSPSSVSASVGDRLTIICRASQDINRWLAWYQQTPGNAPKLLIHSATSLQSGVPSRFSGSGSGTDFTLTINSLQPEDFATYYCQQADSFPLTFGGGTKVEIK	0.9	0.9	
C5A (XPA23) VH G56Y (antibody, V domains shown) VH: EVQLLESGGGLVQPGGSLRLSCAASGFTFSKYFMFWVRQAPGKGLEWVSVISPSGYMTRYADSVKGRFTISRDNSKNTLYLQMNSLRAEDTAVYYCARVGYGGNSDYWGQGTLVTVSS VL: DIQMTQSPSSVSASVGDRLTIICRASQDINRWLAWYQQTPGNAPKLLIHSATSLQSGVPSRFSGSGSGTDFTLTINSLQPEDFATYYCQQADSFPLTFGGGTKVEIK	1.27	1.27	
C5A (XPA23) VH M57H (antibody, V domains shown) VH: EVQLLESGGGLVQPGGSLRLSCAASGFTFSKYFMFWVRQAPGKGLEWVSVISPSGGHTRYADSVKGRFTISRDNSKNTLYLQMNSLRAEDTAVYYCARVGYGGNSDYWGQGTLVTVSS VL: DIQMTQSPSSVSASVGDRLTIICRASQDINRWLAWYQQTPGNAPKLLIHSATSLQSGVPSRFSGSGSGTDFTLTINSLQPEDFATYYCQQADSFPLTFGGGTKVEIK	0.08	0.08	
C5A (XPA23) VH G56N (antibody, V domains shown) VH: EVQLLESGGGLVQPGGSLRLSCAASGFTFSKYFMFWVRQAPGKGLEWVSVISPSGNMTRYADSVKGRFTISRDNSKNTLYLQMNSLRAEDTAVYYCARVGYGGNSDYWGQGTLVTVSS VL: DIQMTQSPSSVSASVGDRLTIICRASQDINRWLAWYQQTPGNAPKLLIHSATSLQSGVPSRFSGSGSGTDFTLTINSLQPEDFATYYCQQADSFPLTFGGGTKVEIK	1.06	1.06	
C5A (XPA23) VH G56Q (antibody, V domains shown) VH: EVQLLESGGGLVQPGGSLRLSCAASGFTFSKYFMFWVRQAPGKGLEWVSVISPSGQMTRYADSVKGRFTISRDNSKNTLYLQMNSLRAEDTAVYYCARVGYGGNSDYWGQGTLVTVSS VL: DIQMTQSPSSVSASVGDRLTIICRASQDINRWLAWYQQTPGNAPKLLIHSATSLQSGVPSRFSGSGSGTDFTLTINSLQPEDFATYYCQQADSFPLTFGGGTKVEIK	1.31	1.31	
C5A (XPA23) VH G55Y (antibody, V domains shown) VH: EVQLLESGGGLVQPGGSLRLSCAASGFTFSKYFMFWVRQAPGKGLEWVSVISPSYGMTRYADSVKGRFTISRDNSKNTLYLQMNSLRAEDTAVYYCARVGYGGNSDYWGQGTLVTVSS VL: DIQMTQSPSSVSASVGDRLTIICRASQDINRWLAWYQQTPGNAPKLLIHSATSLQSGVPSRFSGSGSGTDFTLTINSLQPEDFATYYCQQADSFPLTFGGGTKVEIK	0.08	0.08	
C5A (XPA23) VH G56R (antibody, V domains shown) VH: EVQLLESGGGLVQPGGSLRLSCAASGFTFSKYFMFWVRQAPGKGLEWVSVISPSGRMTRYADSVKGRFTISRDNSKNTLYLQMNSLRAEDTAVYYCARVGYGGNSDYWGQGTLVTVSS VL: DIQMTQSPSSVSASVGDRLTIICRASQDINRWLAWYQQTPGNAPKLLIHSATSLQSGVPSRFSGSGSGTDFTLTINSLQPEDFATYYCQQADSFPLTFGGGTKVEIK	2.11	2.11	
C5A (XPA23) VH G56T (antibody, V domains shown) VH: EVQLLESGGGLVQPGGSLRLSCAASGFTFSKYFMFWVRQAPGKGLEWVSVISPSGTMTRYADSVKGRFTISRDNSKNTLYLQMNSLRAEDTAVYYCARVGYGGNSDYWGQGTLVTVSS VL: DIQMTQSPSSVSASVGDRLTIICRASQDINRWLAWYQQTPGNAPKLLIHSATSLQSGVPSRFSGSGSGTDFTLTINSLQPEDFATYYCQQADSFPLTFGGGTKVEIK		1.11	1.11
C5A (XPA23) VH G56H (antibody, V domains shown) VH: EVQLLESGGGLVQPGGSLRLSCAASGFTFSKYFMFWVRQAPGKGLEWVSVISPSGHMTRYADSVKGRFTISRDNSKNTLYLQMNSLRAEDTAVYYCARVGYGGNSDYWGQGTLVTVSS VL: DIQMTQSPSSVSASVGDRLTIICRASQDINRWLAWYQQTPGNAPKLLIHSATSLQSGVPSRFSGSGSGTDFTLTINSLQPEDFATYYCQQADSFPLTFGGGTKVEIK	0.82	0.82	
C5A (XPA23) VH M57N (antibody, V domains shown) VH: EVQLLESGGGLVQPGGSLRLSCAASGFTFSKYFMFWVRQAPGKGLEWVSVISPSGGNTRYADSVKGRFTISRDNSKNTLYLQMNSLRAEDTAVYYCARVGYGGNSDYWGQGTLVTVSS VL: DIQMTQSPSSVSASVGDRLTIICRASQDINRWLAWYQQTPGNAPKLLIHSATSLQSGVPSRFSGSGSGTDFTLTINSLQPEDFATYYCQQADSFPLTFGGGTKVEIK	0.03	0.03	
